Results: US20190389973A1 (Y BIOLOGICS, published 2019)

How the values were obtained:
[1] = target: VEGFA; assay: ELISA on coated VEGFA
Procedure: (§1) The affinity of Fv2mabs consisting of the tandem Fv combinations of anti-TNF-α and anti-VEGFA; and anti-TNF-α and anti-IL17A was measured by using ELISA method. Antigens such as TNF-α, VEGFA, and IL-17A, were fixed on an immune-plate at a concentration of 100 ng/well (96 well) by using pH 7.4 PBS as a coating buffer through a reaction at 4° C. overnight. Each well was once washed with PBST 200 μl, and then a surface blocking reaction was performed at room temperature with 5% skim milk for one to two hours. Subsequently, after washing each well twice with PBST 200 μl, a serial dilution was performed with an appropriate bispecific Fv2mab to measure and a control parental antibody from an appropriate concentration in an interval of ½ to ⅕ for a reaction at room temperature for one to two hours. Then, each well was washed three times with PBST 200 μl to remove unbound antibodies, and a dilution was performed with horseradish peroxidase (HRP)-conjugated anti-human-Fc-HRP (Millipore, USA) at a ratio of 1:3000 for a reaction at room temperature for one hour. Then, each well was washed three times with PBST 200 μl to remove unbound detection antibodies. A color reaction of HRP was induced by using TMB solution (GEhealthcare, USA) in a volume of […], and the reaction was terminated by using a stop solution (2.5 M H2SO4, 100 μl/well).

[2] = target: T1, TNF-α (UniProt P01375 77-233); assay: ELISA on coated TNF-α
T1 construct: Soluble antigen used as analyte in the OCTET assay and coated in ELISA; also called TNF-a
T1 sequence (P01375 77-233 limits assumed): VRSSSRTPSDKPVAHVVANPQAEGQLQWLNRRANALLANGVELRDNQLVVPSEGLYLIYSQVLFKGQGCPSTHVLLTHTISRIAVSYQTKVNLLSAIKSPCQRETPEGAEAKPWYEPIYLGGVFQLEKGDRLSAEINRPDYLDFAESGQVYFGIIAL
Procedure: as §1

Chain of VEGFA (P15692 whole entry): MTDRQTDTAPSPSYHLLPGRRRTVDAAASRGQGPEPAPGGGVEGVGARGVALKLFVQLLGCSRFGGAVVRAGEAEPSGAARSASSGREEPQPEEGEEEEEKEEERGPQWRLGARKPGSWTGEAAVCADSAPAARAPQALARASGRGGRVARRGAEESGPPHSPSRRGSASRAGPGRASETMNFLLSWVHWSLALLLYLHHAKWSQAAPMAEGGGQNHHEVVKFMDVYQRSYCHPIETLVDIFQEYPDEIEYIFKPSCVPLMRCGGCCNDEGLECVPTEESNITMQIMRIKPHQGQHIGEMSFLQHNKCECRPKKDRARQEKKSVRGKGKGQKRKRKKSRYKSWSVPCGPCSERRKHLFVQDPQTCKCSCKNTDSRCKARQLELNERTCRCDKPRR

B1: anti-VEGFA AB (antibody, V domains shown)
VH: QVTLKESGPTMVKPTQTLTLTCTFSGFSLSTSGVAVGWIRQPPGQALEWLALIYWDNDKRYSPSLKNRLTVAKDTSKSQVVLTMTNMDPMDTATYYCAHGDGWLFDFWGQGTLVTVSS
VL: QPVLTQPPSVSGAPGQRVTISCTGSNSNIGAGHDVHWYQQLPGAAPKVVIYGNTNRASGVPERFSGSKSATSASLAITGLQAEDEADYYCQSYDNSLSGYVFGTGTKVTVL
notes: The sheet calls it 'parantal antibody'; also called anti-VEGFA antibody; F6 (in-house)
[1]
  EC50 (read off the curve): ~0.3 nM
[2]
  binding result: binds
